Laboratory results taken from PMC13344149, “One-step purification of a bioactive PAK1-derived peptide” (Analytical biochemistry, 2025).

Legend:
[1] = biological target: the molecule itself; test: LC-MS; LC-MS of the heat-treated PBD46 sample; major species at 10.23 kDa
[2] = biological target: T1, Cdc42 labelled with the extrinsic fluorophore sNBD (UniProt P60953 1-191, sNBD fluorophore (site not stated)); test: other fluorescence titration; Cdc42 labelled with the extrinsic fluorophore sNBD, PBD46 titrated; heat-purified and conventional PBD46 compared; details: both partners purified
T1 construct: Cdc42, small GTPase; also called sNBD-labeled Cdc42
T1 sequence (P60953 whole entry): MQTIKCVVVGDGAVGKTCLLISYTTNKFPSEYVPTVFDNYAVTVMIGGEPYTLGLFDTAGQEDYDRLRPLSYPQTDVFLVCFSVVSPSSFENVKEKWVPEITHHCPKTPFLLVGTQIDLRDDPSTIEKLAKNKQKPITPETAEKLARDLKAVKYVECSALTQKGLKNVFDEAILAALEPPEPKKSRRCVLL

B1: PBD46, 46-residue peptide from PAK1 (PAK1 CRIB domain, residues 67-112) (peptide, UniProt Q13153 67-112, looked up)
chain: KKEKERPEISLPSDFEHTIHVGFDAVTGEFTGMPEQWARLLQTSNI
notes: The heat-purified and the conventionally purified sample are the same construct from the same host; also called PAK1-derived peptide; heat-purified PBD46; source: E. coli, as GST-PBD46
stoichiometry N [1]: 2
Kd [2]: ~83 nM
